The nature of the data set: soluble fraction after stress (log2 fold change); higher = more stays soluble; pooled small domains, quantitative proteomics. The note with it: stress: 75 degC.
In the case of “HMFPQQGEIRQGVIASITPDQILVNVGTKSEGIISGKELEAISKSERDSLNVDQKIAVYILDPEDSNG”, the “soluble fraction (log2)” value is 0.395.

Turning to “HMFQNPSQVVTTRVGELRAAIPTAQQGRITMGVAVVEDANSVRSVLISTSEPRGYLRPGVTLGPGETMV”, the “soluble fraction (log2)” value turned out to be 0.0661.

In the case of “HMFQPFFENLRKASIPVSLREYLTFLEGMKKGLVTYDIEAFYFLARAAMVKDERNIDKFDRAFSATFKG”, the “soluble fraction (log2)” value is -0.306.

As to “HMFQTAADVAYRIISQKILDGEFPPGMKLSRRKMAEVTSVSVIPVIEALKKLEEDGLVESKPQWGSFVTI”, the “soluble fraction (log2)” value was -1.69.

Turning to “HMFQYEKIKDYILTGLEEGTWQAGDKIPSEAELVMSLNVSRMTVNRAVRELANSGLLVRIPGAGTFVATE”, the “soluble fraction (log2)” value is -0.643.

On to “HMFSIDRNIRRLRKEAGLTQEELAQKLFVTRQTISLWELGKVHPDLETLQKLAEQFQVDLLQVLYGPE”, for which the “soluble fraction (log2)” value was -2.33.

For “HMFSLDMDRLVRPGFMASGNVTFSDGVTGKWALDQMGRLALETAQKGYQPSPADVQAFQRELQQQLQRQG”, the “soluble fraction (log2)” value stood at 0.0415.

With “HMFSPTKLKEKRESQGLSQSQLASSLGISRASYFNWESGKTKPNQNNLSKLSEILNVDPRYF”, the “soluble fraction (log2)” value turned out to be 0.489.

Take “HMFSSVSVPAELSNQRFDKVVAELTPDLSRSKIKQLILLGKVLLNGEVTPPKQKVETGDEIEIFYTRQIE”: the “soluble fraction (log2)” value is -0.797.

“HMFTLDIGTIIRNRRLELNLTLEEIGNAVGVSKSTVQKWENGFISNMKRDKISALAKVLNINPVTLITGEY”: the “soluble fraction (log2)” value is -3.44.

Turning to “HMFTLNEIIGQKIRNARISAGLTLDELSKMTGISAAQLSSLETGYRRANIDTLYAIAKAIGIDVSNLLKY”, the “soluble fraction (log2)” value was -1.39.

As to “HMFTRFTVAQDGWTIGGFTAKEMAVSTAKQHAVDTGKPVTVVAHVAGGGSREAIFNSDGTNDKIWN”, the “soluble fraction (log2)” value was 0.065.

As for “HMFTYEETIGKSADVYLTIPALKAGKGKIIISVRGSVHELDAMTNNAEKISTGAVVKIVRIEHGNILLVEN”, the “soluble fraction (log2)” value is -1.69.

Consider “HMFVEKDSIINKGNNSYNFVITDNNNKVLVEYNGLLPDLFKEEQGVVIEGRLKSDFIIHAFTVF”, for which the “soluble fraction (log2)” value is -0.0707.

For “HMFVGVDMAVKEEIGKEGVAFTDLRPAGKVSIGDDVYDAVSETGAFITRGTSVRVLKYQAGQVYVVK”, the “soluble fraction (log2)” value is -1.3.

As for “HMFVTFFHELKSAGVPVSLREYLTLMEAMDRDLASRRVEEFYYLARTALVKDERNLDKFDRVFGHVFKGL”, the “soluble fraction (log2)” value is -4.08.

With “HMFWVESDVDFVDKTSAHNAIKENERVIGMYISYRLNGTWTTEQYVGIDTSKDNWENPDNWNIL”, the “soluble fraction (log2)” value was -1.42.

“HMFYLPEPLTEQELRILGMLLDGRSNPEIAAELFIAVGTAKWHVHNILQKLGVANRAQAIVKAHELGLT”: the “soluble fraction (log2)” value is -2.08.

Consider “HMFYNELMNFIVYKDSQKIGKIVNINDKLPQPVFEVLINDKKFMVPIHDDFIEKIDKEKKSIHIVIPDGLL”, for which the “soluble fraction (log2)” value was -0.684.

For the sequence “HMFYWTDLIGLDVINTADERLGKVVGLIETGANAVLRVMGDDQVERLLPFGSAVVLTVEKEAGQIRVEW”, the “soluble fraction (log2)” value was -2.11.

For the sequence “HMGAARVTPLYNLRLREGPSTATARLDVVPRGTTLEVRAWDETGDWAQVEYRGQIGWIAAWLAEVEGEAP”, the “soluble fraction (log2)” value was -0.69.

Take “HMGADSFTGYTPIHKIDNPSDGINDGASYVVYFQKDGTDPTEFYKAVNANASTLAQLTSGTEYDLASSKKL”: the “soluble fraction (log2)” value was 0.56.

“HMGAEIRDKVRAALAGLNPRAAEIFVMRYFDGYGNREIARLLNTSWSTIAVTLHRTRAKLQKELK”: the “soluble fraction (log2)” value was -0.0467.

In the case of “HMGAGDKQAQQASLMQIIALQKEGMALGLVEPKHLYHSFSKMIENAGFKDVQSFAVDPSTQQ”, the “soluble fraction (log2)” value is -0.0432.

Turning to “HMGAGEQMLPKVMFAEGDRVVHKVFGEGTVVTVDRPAQTYDIQFDKLRGTRRIMFRAELEGI”, the “soluble fraction (log2)” value was -0.693.

As for “HMGAGLDDLVRKSLHNAGLKADDNVVSWISGNLGSDRMVSRMELEKLVLFVAGQSEITLEDAQAVIGD”, the “soluble fraction (log2)” value was -0.524.

For “HMGAGLKIGNDHEYANYLEYKVSVEKYAPGAILGEIKQKGIQFNTTISKTTFYRYITDGVFLTITNADLPV”, the “soluble fraction (log2)” value came out at 0.374.

The values are drawn from the domain aggregation screens of Martell et al. (2025).
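Further: 20 min heating vs room temperature control held 20 min.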
